Results on two substances are retold here after US20200199212A1.

Experiment [1] deals with cynomolgus LPL on HEK293 cells (cynomolgus). In words: cell-based or functional assay.
Experiment [2] concerns the target rat LPL on HEK293 cells (rat) (UniProt Q06000). Briefly: cell-based or functional assay.

Chain of rat LPL on HEK293 cells (rat) (Q06000 28-474): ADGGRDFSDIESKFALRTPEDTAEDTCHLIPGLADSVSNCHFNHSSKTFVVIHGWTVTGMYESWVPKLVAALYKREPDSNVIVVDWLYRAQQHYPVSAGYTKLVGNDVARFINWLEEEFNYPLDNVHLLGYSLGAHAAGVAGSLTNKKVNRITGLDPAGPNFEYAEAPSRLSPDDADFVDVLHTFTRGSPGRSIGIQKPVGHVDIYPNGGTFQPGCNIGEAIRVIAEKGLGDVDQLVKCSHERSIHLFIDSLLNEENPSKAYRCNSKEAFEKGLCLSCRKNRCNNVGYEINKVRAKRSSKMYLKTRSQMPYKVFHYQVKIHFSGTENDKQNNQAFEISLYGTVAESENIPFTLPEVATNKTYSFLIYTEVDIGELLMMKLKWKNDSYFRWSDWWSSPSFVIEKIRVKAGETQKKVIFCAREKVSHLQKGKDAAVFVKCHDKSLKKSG

With “cyno ANGPTL3/8 complex (from UniProt A0A2K5UDC5 17-460)”, in experiment [1], the IC80 concentration (inhibition of LPL activity) turned out to be 0.38 nM.
In experiment [2], “rat ANGPTL3/8 complex (from UniProt F7FHP0 17-446)” showed an IC80 concentration (inhibition of LPL activity) of 0.81 nM.
